Laboratory results: PMC2711601

Biological target: ribosomes of dog pancreas rough microsomes (ribosomal pellet after digitonin solubilisation) (dog (endogenous in dog pancreas microsomes))
Test: co-sedimentation

Row | Substance | percent in the ribosome pellet | percent pelleted with ribosomes
1 | RAMP4 (ribosome-associated membrane protein 4, dog pancreas microsomes) (from UniProt A0A8I3PRN4 1-66) (natural protein) | 10 to 20% | 
2 | Sec61β, subunit of the Sec61p translocon complex (dog pancreas microsomes) (from UniProt P60467 1-96) (natural protein) |  | 80%
